Laboratory results as given in publication PMC3600821.

These substances were tested against Skeletal muscle actin (F-actin) (rabbit) (UniProt P68135).
An actin-activated Mg-ATPase: K (ATPase) (the actin concentration giving V=Vmax/2) of 15.8 µM and an actin-activated Mg-ATPase: Vmax/K (ATPase) (catalytic efficiency) of 1.23e+06 M⁻¹ s⁻¹ were found for “Muscle S1 (skeletal muscle myosin II subfragment 1) (domain or fragment)” in this work.
An actin-activated Mg-ATPase: K (ATPase) (the actin concentration giving V=Vmax/2) of 59 µM and an actin-activated Mg-ATPase: Vmax/K (ATPase) (catalytic efficiency) of 130000 M⁻¹ s⁻¹ were found for “M761-2R (761-aa wild-type Dictyostelium myosin II catalytic domain fused to two α-actinin repeats) (from UniProt P08799 1-761)” in this work.
An actin-activated Mg-ATPase: K (ATPase) (the actin concentration giving V=Vmax/2) of 17.3 µM and an actin-activated Mg-ATPase: Vmax/K (ATPase) (catalytic efficiency) of 180000 M⁻¹ s⁻¹ were found for “S619C-IQ (S619C construct extended to include one IQ domain) (from UniProt P08799 1-790) (domain or fragment)” in this work.
